Reference: US20240360217A1

Legend:
[1] = target: human PD-L1 on tumor cells (human) (UniProt Q9NZQ7); assay: FACS staining of MDA-MB-231 cells with the control antibody; triplicates
[2] = target: human PD-L1 on tumor cells (human) (UniProt Q9NZQ7); assay: FACS staining of HCT116 cells with the control antibody; triplicates

Chain of human PD-L1 on tumor cells (human) (Q9NZQ7 19-290 limits assumed): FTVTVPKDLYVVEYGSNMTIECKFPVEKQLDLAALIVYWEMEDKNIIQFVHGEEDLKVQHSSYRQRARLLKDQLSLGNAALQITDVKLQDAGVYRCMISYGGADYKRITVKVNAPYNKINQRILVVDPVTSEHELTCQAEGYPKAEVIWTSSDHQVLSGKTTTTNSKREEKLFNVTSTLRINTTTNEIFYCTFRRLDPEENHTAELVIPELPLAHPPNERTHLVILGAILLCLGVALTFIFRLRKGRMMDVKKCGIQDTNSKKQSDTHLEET

PD-L1 (MFI) [1]: 74600 MFI
PD-L1 (MFI) [2]: 10900 MFI
Substance: anti-PD-L1 RG7446 MPDL3280A (antibody)
